Laboratory results taken from PMC8158043 (mAbs, 2021).

Target: SARS-CoV-2 RBD (residues 319–541) (SARS-CoV-2, UniProt P0DTC2)
Test: BLI

B1: CR3014 parental (human IgG1) (antibody, V domains shown)
VH: EVQLVESGGGLVQPGGSLRLSCAASGFTFSDHYMDWVRQAPGKGLEWVGRTRNKANSYTTEYAASVKGRFTISRDDSKNSLYLQMNSLKTEDTAVYYCARGISPFYFDYWGQGTLVTVSS
VL: not shown
- binding result: no binding
